Paper PMC3440371, “Non-Covalent Interaction between Polyubiquitin and GTP Cyclohydrolase 1 Dictates Its Degradation” (PLoS ONE, 2012)

Molecular target: T1, polyubiquitin chains, endogenous in HEK293 cells (human (endogenous in HEK293), UniProt P0CG48 1-76)
T1 construct: ubiquitin (76 amino acids), cut product of the polyubiquitin precursor, joined into endogenous polyubiquitin chains; Precipitated or detected with a polyclonal ubiquitin antibody; seen as smeared bands; source: endogenous, HEK293 lysate
Assay: co-IP; lysates of HEK293 cells transfected with FLAG-GCH1 or mutants for 2 days, immunoprecipitated with the ubiquitin antibody and protein A/G beads; blot with FLAG antibody; empty vector as control
Conditions: partners not purified

fold change of ubiquitin binding against wild-type FLAG-GTPCH1: ~4.5 fold
B1: FLAG-GTPCH1 I131L (natural protein, human, UniProt P30793 1-250, looked up)
chain: MEKGPVRAPAEKPRGARCSNGFPERDPPRPGPSRPAEKPPRPEAKSAQPADGWKGERPRSEEDNELNLPNLAAAYSSILSSLGENPQRQGLLKTPWRAASAMQFFTKGYQETISDVLNDAIFDEDHDEMVLVKDIDMFSMCEHHLVPFVGKVHIGYLPNKQVLGLSKLARIVEIYSRRLQVQERLTKQIAVAITEALRPAGVGVVVEATHMCMVMRGVQKMNSKTVTSTMLGVFREDPKTREEFLTLIRS
notes: GTP cyclohydrolase 1 (GTPCH1), human, full-length GCH1 cDNA with the point mutation I131L; also called FLAG-GCH1 I131L; source: HEK293, transfected (pCI-neo), in lysate; not shown: FLAG, C-terminal, kept
